Assays:
[1] = biological target: YejK(Δ134–147) (E. coli) (UniProt P33920); assay: SEC
[2] = biological target: the molecule itself; assay: SEC
[3] = biological target: the molecule itself; assay: cross-linking
[4] = biological target: T1, YejK (Escherichia coli, UniProt P33920 1-335); assay: fluorescence polarization
T1 sequence: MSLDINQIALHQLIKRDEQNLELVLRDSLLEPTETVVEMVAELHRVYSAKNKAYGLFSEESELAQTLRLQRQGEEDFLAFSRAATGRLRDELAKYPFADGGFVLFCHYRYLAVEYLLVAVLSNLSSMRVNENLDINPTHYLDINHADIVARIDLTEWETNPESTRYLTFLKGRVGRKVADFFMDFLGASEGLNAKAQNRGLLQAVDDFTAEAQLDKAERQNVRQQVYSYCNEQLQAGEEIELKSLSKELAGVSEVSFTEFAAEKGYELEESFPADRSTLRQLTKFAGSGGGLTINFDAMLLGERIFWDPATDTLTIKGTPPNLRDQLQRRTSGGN

[5] = biological target: T2, YejK(R276A-R280A-K284A) (Escherichia coli, UniProt P33920 1-335, R276A;R280A;K284A); assay: fluorescence polarization
T2 sequence: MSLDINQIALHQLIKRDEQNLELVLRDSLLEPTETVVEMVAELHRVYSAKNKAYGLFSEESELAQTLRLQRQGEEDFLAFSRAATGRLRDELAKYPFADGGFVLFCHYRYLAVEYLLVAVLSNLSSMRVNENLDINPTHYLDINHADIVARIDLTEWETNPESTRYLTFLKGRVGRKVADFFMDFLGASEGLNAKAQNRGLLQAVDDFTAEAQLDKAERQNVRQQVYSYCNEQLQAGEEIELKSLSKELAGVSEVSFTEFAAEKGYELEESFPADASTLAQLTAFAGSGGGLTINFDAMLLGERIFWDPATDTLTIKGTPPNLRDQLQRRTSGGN

[6] = biological target: T3, YejK C-trunc, YejK(1-290) (Escherichia coli, UniProt P33920 1-290, del291-335); assay: fluorescence polarization
T3 sequence: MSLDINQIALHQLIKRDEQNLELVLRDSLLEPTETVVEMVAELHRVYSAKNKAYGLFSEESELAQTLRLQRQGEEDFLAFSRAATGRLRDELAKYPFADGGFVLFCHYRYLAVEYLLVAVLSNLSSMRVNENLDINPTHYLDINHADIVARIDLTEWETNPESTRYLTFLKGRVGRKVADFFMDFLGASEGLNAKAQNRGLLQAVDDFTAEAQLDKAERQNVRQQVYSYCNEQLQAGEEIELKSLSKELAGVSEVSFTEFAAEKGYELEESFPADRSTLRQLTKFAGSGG

“YejK(Δ134–147) (from UniProt P33920 1-335) (natural protein)” was tested. Which stoichiometry N [1] did it give?
Its stoichiometry N is 2.

B1: E. coli YejK protein (WT) (natural protein, UniProt P33920 1-335, looked up)
chain: MSLDINQIALHQLIKRDEQNLELVLRDSLLEPTETVVEMVAELHRVYSAKNKAYGLFSEESELAQTLRLQRQGEEDFLAFSRAATGRLRDELAKYPFADGGFVLFCHYRYLAVEYLLVAVLSNLSSMRVNENLDINPTHYLDINHADIVARIDLTEWETNPESTRYLTFLKGRVGRKVADFFMDFLGASEGLNAKAQNRGLLQAVDDFTAEAQLDKAERQNVRQQVYSYCNEQLQAGEEIELKSLSKELAGVSEVSFTEFAAEKGYELEESFPADRSTLRQLTKFAGSGGGLTINFDAMLLGERIFWDPATDTLTIKGTPPNLRDQLQRRTSGGN
B1 was tested. Which “stoichiometry N” value [2] did it give?
Its value is 2.

B2: YejK(R276A-R280A-K284A) (natural protein, E. coli, UniProt P33920 1-335, looked up)
chain: MSLDINQIALHQLIKRDEQNLELVLRDSLLEPTETVVEMVAELHRVYSAKNKAYGLFSEESELAQTLRLQRQGEEDFLAFSRAATGRLRDELAKYPFADGGFVLFCHYRYLAVEYLLVAVLSNLSSMRVNENLDINPTHYLDINHADIVARIDLTEWETNPESTRYLTFLKGRVGRKVADFFMDFLGASEGLNAKAQNRGLLQAVDDFTAEAQLDKAERQNVRQQVYSYCNEQLQAGEEIELKSLSKELAGVSEVSFTEFAAEKGYELEESFPADASTLAQLTAFAGSGGGLTINFDAMLLGERIFWDPATDTLTIKGTPPNLRDQLQRRTSGGN
With B2 as the molecule, how does the “stoichiometry N” value [3] read?
The value was 2.

B3: YejK(R173A-R176A-K177A) (natural protein, E. coli, UniProt P33920 1-335, looked up)
chain: MSLDINQIALHQLIKRDEQNLELVLRDSLLEPTETVVEMVAELHRVYSAKNKAYGLFSEESELAQTLRLQRQGEEDFLAFSRAATGRLRDELAKYPFADGGFVLFCHYRYLAVEYLLVAVLSNLSSMRVNENLDINPTHYLDINHADIVARIDLTEWETNPESTRYLTFLKGAVGAAVADFFMDFLGASEGLNAKAQNRGLLQAVDDFTAEAQLDKAERQNVRQQVYSYCNEQLQAGEEIELKSLSKELAGVSEVSFTEFAAEKGYELEESFPADRSTLRQLTKFAGSGGGLTINFDAMLLGERIFWDPATDTLTIKGTPPNLRDQLQRRTSGGN
How did the “stoichiometry N” value [3] turn out when B3 was run?
The value was 2.

B4: AT-rich 20-mer (dsDNA)
DNA 1: ATTATTAATTAATTAATAAT
DNA 2: ATTATTAATTAATTAATAAT
B4 was tested. Which Kd [4] did it give?
The Kd was 6.8 ± 0.5 µM.

What about the Kd [5] of the same molecule?
Its Kd is 40 ± 5.6 µM.

Does B4 bind [6]?
Result: no binding

From PMC11229321 (Nucleic Acids Research, 2024)
